Ends that are not written are not given here. * marks the point of attachment. Biotin = O=C1N[C@H]2[C@H](CS[C@H]2CCCCC(=O)*)N1
T1: citrate synthase from porcine heart (Roche) (porcine, UniProt P00889 28-464)
T1 construct: Bought protein spotted on nitrocellulose
T1 sequence (looked up): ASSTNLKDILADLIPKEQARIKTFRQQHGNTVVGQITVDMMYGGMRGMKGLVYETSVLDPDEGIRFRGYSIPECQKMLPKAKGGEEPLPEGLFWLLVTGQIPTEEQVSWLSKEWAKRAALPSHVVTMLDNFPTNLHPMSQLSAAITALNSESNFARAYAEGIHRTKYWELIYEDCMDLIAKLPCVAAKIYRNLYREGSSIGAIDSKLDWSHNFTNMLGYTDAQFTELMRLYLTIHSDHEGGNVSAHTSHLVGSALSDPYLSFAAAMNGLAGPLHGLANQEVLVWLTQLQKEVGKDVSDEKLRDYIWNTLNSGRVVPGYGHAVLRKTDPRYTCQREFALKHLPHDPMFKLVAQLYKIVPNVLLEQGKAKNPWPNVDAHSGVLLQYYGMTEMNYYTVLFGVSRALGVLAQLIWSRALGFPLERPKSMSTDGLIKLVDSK

T2: glucose-6-phosphate dehydrogenase from Leuconostoc mesenteroides (Sigma) (Leuconostoc mesenteroides, UniProt P11411 2-486)
T2 construct: Bought protein spotted on nitrocellulose
T2 sequence: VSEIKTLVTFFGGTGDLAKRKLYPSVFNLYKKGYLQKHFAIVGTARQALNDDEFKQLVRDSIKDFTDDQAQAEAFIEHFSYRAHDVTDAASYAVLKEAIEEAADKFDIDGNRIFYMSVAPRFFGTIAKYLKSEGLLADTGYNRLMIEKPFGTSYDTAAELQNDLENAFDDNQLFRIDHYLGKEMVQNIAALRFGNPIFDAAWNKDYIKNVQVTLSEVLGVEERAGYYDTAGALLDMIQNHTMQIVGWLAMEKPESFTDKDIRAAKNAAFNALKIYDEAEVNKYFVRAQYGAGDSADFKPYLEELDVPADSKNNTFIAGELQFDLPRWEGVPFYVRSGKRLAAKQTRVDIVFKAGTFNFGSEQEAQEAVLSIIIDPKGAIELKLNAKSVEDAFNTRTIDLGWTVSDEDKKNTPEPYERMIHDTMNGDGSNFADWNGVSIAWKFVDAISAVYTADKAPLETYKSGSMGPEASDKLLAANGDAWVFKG

B1: biotin-ALFWLLVT (peptide)
peptide: Biotin-ALFWLLVT
notes: Synthetic biotinylated peptide (Jerine Peptide Technologies); biotin is part A, the peptide is part B; also called interferor molecule with a specificity for citrate synthase; biotinylated detection peptide
B2: biotin-AFVDAISAVYTA (peptide)
peptide: Biotin-AFVDAISAVYTA
notes: Synthetic biotinylated peptide; also called interferor molecule with a specificity for glucose-6-phosphate dehydrogenase; biotinylated detection peptide

Experiments:
[1] = target: T1, citrate synthase from porcine heart …; assay: dot blot: 0.3 mg target protein on nitrocellulose, 10 mM biotinylated peptide, streptavidin-HRP chemiluminescence
[2] = target: T2, glucose-6-phosphate dehydrogenase from …; assay: as above

Row | Binder | binding result [1] | binding result [2]
1 | B1 | binds | 
2 | B2 |  | binds

Source: patent publication US20090012275A1 (VIB VZW, published 2009)
